The data set has as its system T1, O=[N+]([O-])c1ccc(O[C@@H]2OC[C@@H](O[C@@H]3OC[C@@H](O)[C@H](O)[C@H]3O)[C@H](O)[C@H]2O)cc1.
T1 construct: mature form Leu20-Ser216 (197 residues), signal peptide removed, N-terminal His6 tag (pRham N-His), E. coli 10G, synthetic codon-optimised gene, monomer, 22,340 Da
Briefly: purified protein. Type of data set: biochemical, Rhizopus arrhizus. Particulars: 20 mM sodium acetate, pH 5.0, 37 °C, free enzyme without OsXIP.

Results on one substance are retold here after paper PMC12329526, “Molecular arrangements that accompany binding of rice xylanase inhibitor protein OsXIP and the Rhizopus oryzae GH11 xylanase RXyn2” (The Journal of Biological Chemistry, 2025).

Chain of RXyn2 (Rhizopus arrhizus) (chain, as listed by the source): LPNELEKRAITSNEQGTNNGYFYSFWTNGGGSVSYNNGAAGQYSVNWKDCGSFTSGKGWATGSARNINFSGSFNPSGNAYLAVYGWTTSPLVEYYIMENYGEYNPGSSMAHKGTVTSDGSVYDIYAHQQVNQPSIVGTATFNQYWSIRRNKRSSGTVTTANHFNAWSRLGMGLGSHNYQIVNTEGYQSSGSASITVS

As a reminder, the Km is the substrate concentration at which the rate is half of its maximum. As for RXyn2 (Rhizopus arrhizus), the Km is 5.05 ± 0.29 mM.
